In patent US20230183347A1:

Biological target: human PD-1 (hPD-1) expressed on T cells (DO11.10 T cell hybridomas, DO11.10 mouse CD4+ T cells, activated human CD4+ T cells) (human) (UniProt Q15116)
Assay: cell-based or functional assay

UniProt Q15116, sequence (Q15116 25-288 limits assumed): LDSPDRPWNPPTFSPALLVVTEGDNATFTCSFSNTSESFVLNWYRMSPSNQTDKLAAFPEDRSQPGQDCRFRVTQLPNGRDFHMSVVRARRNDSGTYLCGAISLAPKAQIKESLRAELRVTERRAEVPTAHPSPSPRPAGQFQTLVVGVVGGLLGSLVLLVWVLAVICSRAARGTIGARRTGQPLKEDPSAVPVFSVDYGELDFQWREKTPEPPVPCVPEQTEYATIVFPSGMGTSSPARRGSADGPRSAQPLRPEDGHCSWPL

Question: Which IC50 of inhibitory activity on IL-2 production does the source give for “anti-human PD-1 antibody (clone: J116, Invitrogen)” here?
Answer: The IC50 of inhibitory activity on IL-2 production was 1 µg/mL.
